Conditions in all cases: both partners purified
The target in experiment [1] is T1, Full-length isoform 165 of human VEGF-A (Homo sapiens, UniProt P15692-4, strain).
T1 construct: human vascular endothelial growth factor A, 165 amino acid isoform (VEGF165); also called VEGF165
The experiment in a line: SPR; BioRad ProteOn XPR36; HER2 or VEGF amine-coupled to a GLC chip (about 150 RU); Fab as analyte, 3-fold dilutions from 30, 60 or 120 nM; 25C; PBS, 0.05% Tween 20, 3.4 mM EDTA; 1:1 binding model, KD from koff/kon.
T1 sequence (P15692 whole entry, looked up, change not shown, canonical isoform): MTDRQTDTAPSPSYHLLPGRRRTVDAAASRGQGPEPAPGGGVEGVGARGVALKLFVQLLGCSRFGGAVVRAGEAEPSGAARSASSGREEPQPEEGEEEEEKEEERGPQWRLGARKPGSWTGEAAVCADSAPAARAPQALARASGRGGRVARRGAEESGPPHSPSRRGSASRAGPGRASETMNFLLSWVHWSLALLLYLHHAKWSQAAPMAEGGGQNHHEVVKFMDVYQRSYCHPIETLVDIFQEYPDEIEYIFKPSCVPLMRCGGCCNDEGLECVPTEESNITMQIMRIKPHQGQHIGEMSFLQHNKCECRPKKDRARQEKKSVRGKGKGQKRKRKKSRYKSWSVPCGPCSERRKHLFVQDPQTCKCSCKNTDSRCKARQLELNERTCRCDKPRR

The target in experiment [2] is T2, Recombinant soluble human HER2 extracellular domain (Homo sapiens, UniProt P04626).
T2 construct: human HER2 (ErbB2), soluble extracellular domain; also called HER2 ectodomain; Receptor-tyrosine kinase ErbB2 soluble ectodomain; source: bought: eBioscience
Described as above.

The target of experiment [3] is T3, Full-length isoform 165 of human VEGF-A (Homo sapiens, UniProt P15692-4, strain).
T3 construct: vascular endothelial growth factor A, human, 165 amino acid isoform; also called VEGF165; source: produced recombinantly and purified
The experiment in a line: SPR; BioRad ProteOn XPR36, GLC chip; HER2 and VEGF amine-coupled (about 150 RU); Fab variants injected as analyte in 3-fold dilutions (top 30, 60 or 120 nM); 25C, PBS with 0.05% Tween 20 and 3.4 mM EDTA; 1:1 model; KWT/K uses the parent Fab's K of the same batch.
T3 sequence (P15692 whole entry, looked up, change not shown, canonical isoform): as above

B1: bH1 Fab (parent) (Fab, V domains shown)
VH: not shown
VL: DIQMTQSPSSLSASVGDRVTITCRASQDIPRSISGYVAWYQQKPGKAPKLLIYWGSYLYSGVPSRFSGSGSGTDFTLTISSLQPEDFATYYCQQHYTTPPTFGQGTKVEIK
notes: Fab heavy chain of bH1; numbers count on: Bostrom et al. [8]; Fab light chain of bH1; also called WT; source: CHO-3E7, co-transfected, His-tag purified
Broadly, the Kd is the equilibrium constant for the complex coming apart. The koff is the rate constant with which the complex falls apart. As a reminder, the kon is a measure of how fast the partners come together. For B1, in experiment [1], binding was characterised by a dissociation constant (Kd) of 44 ± 17 nM, the off-rate constant (koff) is 0.009 s⁻¹ and the kon turned out to be 220000 M⁻¹ s⁻¹. Further, in experiment [2], the Kd turned out to be 3.6 ± 0.6 nM, the koff came out at 0.0013 s⁻¹ and the kon came to 370000 M⁻¹ s⁻¹.

B2: bH1 Fab HD98F HD31K LI29R (Fab, V domains shown)
VH: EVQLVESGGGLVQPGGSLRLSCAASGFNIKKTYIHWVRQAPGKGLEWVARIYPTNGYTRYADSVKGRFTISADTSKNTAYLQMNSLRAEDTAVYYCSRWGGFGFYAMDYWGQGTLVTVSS
VL: DIQMTQSPSSLSASVGDRVTITCRASQDRPRSISGYVAWYQQKPGKAPKLLIYWGSYLYSGVPSRFSGSGSGTDFTLTISSLQPEDFATYYCQQHYTTPPTFGQGTKVEIK
notes: as the heavy chain of m4 with the stated changes; numbers count on: Bostrom et al. [8]; as the light chain of m4 with the stated change; source: CHO-3E7, co-transfected, His-tag purified
In the case of B2, in experiment [2], the Kd was found to be 0.11 ± 0.02 nM, the koff turned out to be 0.00029 s⁻¹ and the kon was 2.7e+06 M⁻¹ s⁻¹.

B3: bH1 Fab HD98F HD31K LI29K (Fab, V domains shown)
VH: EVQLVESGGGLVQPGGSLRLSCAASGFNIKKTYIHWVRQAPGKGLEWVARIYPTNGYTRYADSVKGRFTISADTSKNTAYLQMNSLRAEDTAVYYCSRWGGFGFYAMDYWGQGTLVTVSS
VL: DIQMTQSPSSLSASVGDRVTITCRASQDKPRSISGYVAWYQQKPGKAPKLLIYWGSYLYSGVPSRFSGSGSGTDFTLTISSLQPEDFATYYCQQHYTTPPTFGQGTKVEIK
notes: as for B2
With B3, in experiment [2], the Kd amounted to 0.14 ± 0.05 nM, the koff came to 0.00029 s⁻¹ and the kon came out at 2.2e+06 M⁻¹ s⁻¹.

B4: bH1 Fab HD98W HY33W HG99D (Fab, V domains shown)
VH: EVQLVESGGGLVQPGGSLRLSCAASGFNIKDTWIHWVRQAPGKGLEWVARIYPTNGYTRYADSVKGRFTISADTSKNTAYLQMNSLRAEDTAVYYCSRWGGWDFYAMDYWGQGTLVTVSS
VL: DIQMTQSPSSLSASVGDRVTITCRASQDIPRSISGYVAWYQQKPGKAPKLLIYWGSYLYSGVPSRFSGSGSGTDFTLTISSLQPEDFATYYCQQHYTTPPTFGQGTKVEIK
notes: as the heavy chain of m4 with the stated changes; numbers count on: Bostrom et al. [8]; as the light chain of m4; also called best triple mutant (bH1-VEGF); source: CHO-3E7, co-transfected, His-tag purified
In experiment [1], B4 gave a dissociation constant (Kd) of 0.5 ± 0.1 nM, a koff of 7e-05 s⁻¹ and a kon of 160000 M⁻¹ s⁻¹.

B5: bH1 Fab LS30dL (Fab, V domains shown)
VH: not shown
VL: DIQMTQSPSSLSASVGDRVTITCRASQDIPRSILGYVAWYQQKPGKAPKLLIYWGSYLYSGVPSRFSGSGSGTDFTLTISSLQPEDFATYYCQQHYTTPPTFGQGTKVEIK
notes: as the heavy chain of Sm3; bH1 Fab light chain, parent as in Sm3; numbers count on: Bostrom et al; source: CHO-3E7, co-transfected, purified (His tag)
For B5, in experiment [3], the binding result was “no binding”.

B6: bH1 Fab HD98W HY33W HG99M (Fab, V domains shown)
VH: EVQLVESGGGLVQPGGSLRLSCAASGFNIKDTWIHWVRQAPGKGLEWVARIYPTNGYTRYADSVKGRFTISADTSKNTAYLQMNSLRAEDTAVYYCSRWGGWMFYAMDYWGQGTLVTVSS
VL: DIQMTQSPSSLSASVGDRVTITCRASQDIPRSISGYVAWYQQKPGKAPKLLIYWGSYLYSGVPSRFSGSGSGTDFTLTISSLQPEDFATYYCQQHYTTPPTFGQGTKVEIK
notes: as the heavy chain of m4 with the stated changes; numbers count on: Bostrom et al. [8]; as the light chain of m4; source: CHO-3E7, co-transfected, His-tag purified
In experiment [1], B6 returned a Kd of 1.2 ± 0.2 nM, a koff of 0.00034 s⁻¹ and a kon of 290000 M⁻¹ s⁻¹.

B7: bH1 Fab HD98K HD31K LI29R (Fab, V domains shown)
VH: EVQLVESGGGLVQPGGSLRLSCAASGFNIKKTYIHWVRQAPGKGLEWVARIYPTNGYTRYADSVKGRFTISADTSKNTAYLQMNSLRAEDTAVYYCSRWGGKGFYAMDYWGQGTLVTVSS
VL: DIQMTQSPSSLSASVGDRVTITCRASQDRPRSISGYVAWYQQKPGKAPKLLIYWGSYLYSGVPSRFSGSGSGTDFTLTISSLQPEDFATYYCQQHYTTPPTFGQGTKVEIK
notes: as for B2
As for B7, in experiment [2], the Kd was found to be 0.11 ± 0.02 nM, the koff came out at 0.00045 s⁻¹ and the kon is 4.4e+06 M⁻¹ s⁻¹.

B8: bH1 Fab HD98K HD31K LI29K (Fab, V domains shown)
VH: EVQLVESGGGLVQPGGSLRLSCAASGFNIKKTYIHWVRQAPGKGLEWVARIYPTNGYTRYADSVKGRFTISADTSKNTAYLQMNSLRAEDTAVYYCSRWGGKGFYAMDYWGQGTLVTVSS
VL: DIQMTQSPSSLSASVGDRVTITCRASQDKPRSISGYVAWYQQKPGKAPKLLIYWGSYLYSGVPSRFSGSGSGTDFTLTISSLQPEDFATYYCQQHYTTPPTFGQGTKVEIK
notes: as for B2
Consider B8, for which, in experiment [2], the Kd was determined as 0.15 ± 0.05 nM, the koff came out at 0.00039 s⁻¹ and the kon worked out at 2.3e+06 M⁻¹ s⁻¹.

B9: bH1 Fab HD98Y HD31K LI29R (Fab, V domains shown)
VH: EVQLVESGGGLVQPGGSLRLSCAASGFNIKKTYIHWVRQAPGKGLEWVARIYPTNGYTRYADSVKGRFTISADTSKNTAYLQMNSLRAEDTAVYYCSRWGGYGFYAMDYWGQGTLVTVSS
VL: DIQMTQSPSSLSASVGDRVTITCRASQDRPRSISGYVAWYQQKPGKAPKLLIYWGSYLYSGVPSRFSGSGSGTDFTLTISSLQPEDFATYYCQQHYTTPPTFGQGTKVEIK
notes: as the heavy chain of m4 with the stated changes; numbers count on: Bostrom et al. [8]; as the light chain of m4 with the stated change; also called best triple mutant (bH1-HER2); source: CHO-3E7, co-transfected, His-tag purified
Turning to B9, in experiment [2], the Kd came to 0.07 ± 0.01 nM, the koff was found to be 0.00025 s⁻¹ and the kon was 3.8e+06 M⁻¹ s⁻¹.

B10: bH1 Fab HD98Y HD31K LI29K (Fab, V domains shown)
VH: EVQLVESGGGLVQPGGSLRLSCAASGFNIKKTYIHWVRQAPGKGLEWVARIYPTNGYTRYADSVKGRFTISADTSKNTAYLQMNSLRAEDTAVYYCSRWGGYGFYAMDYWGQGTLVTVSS
VL: DIQMTQSPSSLSASVGDRVTITCRASQDKPRSISGYVAWYQQKPGKAPKLLIYWGSYLYSGVPSRFSGSGSGTDFTLTISSLQPEDFATYYCQQHYTTPPTFGQGTKVEIK
notes: as for B2
On to B10, for which, in experiment [2], the Kd was found to be 0.14 ± 0.09 nM, the off-rate (koff) amounted to 0.00028 s⁻¹ and the kon was 2.2e+06 M⁻¹ s⁻¹.

B11: bH1 Fab LS30dM (Fab, V domains shown)
VH: not shown
VL: DIQMTQSPSSLSASVGDRVTITCRASQDIPRSIMGYVAWYQQKPGKAPKLLIYWGSYLYSGVPSRFSGSGSGTDFTLTISSLQPEDFATYYCQQHYTTPPTFGQGTKVEIK
notes: as for B5
Consider B11, for which the binding result in experiment [3] is “no binding”.

For the origin of these results see publication PMC5531539 (PLoS ONE, 2017).
